Test results from the domain aggregation screens of Martell et al. (2025).

test: soluble fraction after stress (log2 fold change); higher = more stays soluble; pooled small domains, quantitative proteomics; conditions: stress: 75 degC
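Further: 20 min heating vs room temperature control held 20 min.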

Row | Sequence | soluble fraction (log2)
1 | HMSLGSNISRLRAEKHLSQGDLAEALDVSRQSVSKWETDGSVPDLDKLVKLSRIFGVTLDELVTGTP | -0.039
2 | HMSLIHEQSLKEIRIFINNLPESLRTAFTLREQDGLSYEEISKITDTPIGTVRSRIFRARESILEHINEEL | -2.25
3 | HMSLLTPLEEARIVIEELIIPQKLTLDLLPQNSQIRKLQHEIINHYRLKGISIGDGKNRRVRIYS | -0.204
4 | HMSLMHEESLKNIRRFINSLPESLRTAFTLREQDGLSYEEIGVITETPIGTVRSRIFRAREAILEHIKKEL | -2.39
5 | HMSLMLYVEDVDTAFKKAIELGATEIRPVHDQFYGDRAGTLQDPFGHIWIIGTHKEDVSDEELNNRIGNI | 0.104
6 | HMSLPNNLIEQLQDPEPKARRRAVRRLAATRDPSAIPLLRNVYLQDGDDRVRDAAEAALVQFRAMQHN | -0.112
7 | HMSLPTYVQISEAIARRITAGQWLDGERLPPERTMAAEFGVAVGTLRKALSRLQDQKLLRRLQGSGNYINI | -1.67
8 | HMSLREKNKARTRTAILNAARDLAKQGQWDAITTRQIADAAGVSYQTLYNYYPSKASILVEMLL | -2.03
9 | HMSLSDDIAQTLRQLGFDRDVSETLANDVLPAMPTRQDVIDLLGTLGIEKHVAADFANFVVLN | -0.964
10 | HMSLSEYLSAPVLEGQRNHALFSAVMQAREQGWDEWQIRTTIGAKAEADGLRHAEIAATIRSAMSREITP | -0.314
11 | HMSLSIKINHESVGLRLDQFLQEHYYKQQSRSYVQHAIKEGYILVNGQSVKNGYMLKLDDLIELEAI | -4.5
12 | HMSLSNMIGKNIQWTHVTKTKDAEGNPKTNSETFAGNVRGVKVLNGKPMVVAQDAKGKLHEVEVSEIEAIA | 0.0953
13 | HMSLTEDELFHALTIYANREGINIGATELKYLLTHYARNLGKLIELINQVSQAATMQKKPITIPLIKHS | -0.411
14 | HMSLTGFYNLTFKQADRLSVIDEAGEEVYKQAIAMGSTTKTIDLSALNAGVYFIRIYNGEVIAQEKIVLN | -0.933
15 | HMSLTYTGKFILNHNNIDQSSFNINIYLVNKQTIIQITKPFYGNVLNIKFNEENDLIISPKQFS | -0.369
16 | HMSMDPYTVLGVNKSSTDSQIKNAYKNLAKQHHPDRGGNEAKFKEISTAYEQIKTAEKRQQYDMSQQF | 0.604
17 | HMSMFAQQLKDLRKKIPGLTQTDMAKKLGIAKTTYASYEQGKRTPDIETQNKIADFFNVSLDYLHG | -0.302
18 | HMSMFSEILRTLRKAKGLTQRELAGHLGVTQQMVAKWEKGQSTPGPDQLTRMAELLEVSTDTLLGR | -0.366
19 | HMSMNSWFVEKERDNTRIDKFLNEQMADISRSYIQKLIKDDLVTVDLRPVKANYKVKEGDRVEVTLPEPV | 0.000708
20 | HMSMPTITLQHYKRGSHYYASIIETFRDPVTRKNSSRTLEALGDISEKMKEDPNYLQSLKDRVKALRSD | -0.899
21 | HMSMSLQFLSRRIRLQREKRGLKQHDIAHALQISPQAVSKWERGENAPDIALLRPLAGLLGVSIDWLMGGD | -3.27
22 | HMSNEEEIEGLVSKVLDNNPEIVERIRSGEDKLISYLVGEVMKQSSSSLNPGIVKEIIVNKTI | 0.091
23 | HMSNEITVPDLSGMSLEELETILSDRSLSYEIIDSIYNSTAKKGTVSSQDPLPDAKVKSGRTIYITVVSKL | -1.85
24 | HMSNENIDQDELQAIIQKVLASNQDAVAKYKAGKTAVIGFLIGQVMRQLNKKIDVALAKKTLLVFLEK | -1.42
25 | HMSNETKSAILNFAEKHHDFNIDDLFESLSKSMDINRSSLLWHLFKLVNSNVLIRTGRGMYAKV | -2.62

Row | Sequence | soluble fraction (log2)
26 | HMSNEVSYSDFVRSVESDEVNAVTLDGEQIRFVGNDGQTYSVIKPADAQITQLLIDNNVTVRAEQQ | 0.123
27 | HMSNEYLMPNLIGMSWDEAKSKYSQYMTLVPEQEWSEVTKDQIFDQEYPEGRKVKIGTEVTVKVSMGI | -0.654
28 | HMSNFGALLRMRRLEAGLSYRGLAEQSGLARATLVNLEQGLTKPSPLTMRRLASVKALRLTEL | -3.17
29 | HMSNFGERLRALRQDRQMTLQQASKVTGVAQSTLSKMENNQLSPTFNLMQKLAIGLGIDMPQLFAPVK | -0.642
30 | HMSNGEWQQGSDGRWWYKFSDGTYPKNKVETIGGKKYGFDSEGWMLANTTKEFSGTTYSFGADGVATS | 0.223
31 | HMSNHYETLGVEQTASVDEIKKAYRRLSLQYHPDRNTTSDAVGKFQKINDAHEILSDKQSRTEYDMQLK | 0.0273
32 | HMSNIQLAANLQRLRKDHHFTQTQFSKKLNISRQAYSNYETGKRIPDLDIIIRIANIYHISLENLL | -0.305
33 | HMSNKYYETILDWFKSQIMSGELKEGDTIPSERELATRFGVSRVPVREALRILEYIGIVSNTADGMTVQKV | -1.72
34 | HMSNLKKRRLEKNLTLDDVGKLVGVSAATISRWESGDIENMRSDKIVKLANALEISPAVILGW | -0.0179
35 | HMSNLLKNILDVLEKEGPLKARKIALLLDSTRTTITHTTINSELYKALDLEGLTKNEQNIWSYVT | 0.145
36 | HMSNLVEVPAVIGRMKEDAITMLISAGLEPAVTYDEYPLVKENLVADQSVAPGQKVEKGSFVTITVSRS | -0.0726
37 | HMSNMESLIGREATVIEMIPAEDVGRVKIDGDEWQAVLAREDDNEPRRDIQVGEKVIIVSYDSIILTVKTK | 0.0742
38 | HMSNNENSILEKLNSFSGKKIKVSHTIGSLAARLDEYPKIKMWLYKRIRENSINEQAYKYLIFIIERKVR | -1.34
39 | HMSNPADDVVDLLRQLRLPHMRAAAPELLATAKAQRWDPAEAIRALLTEELAGRQASSINARRK | -0.477
40 | HMSNPPIRIGKKALHELLTTWLSLLSRDGVAYLVVQKNLGADSLTAWLRDQGFPSEKIASKKGFRIIEVH | -0.315
41 | HMSNRDNPVVLDFKKVKSTEQLDNILEEYIRENFEGYTVKGRMFSSDEGKFIIALALKDDDGKRALVYFDV | -1.04
42 | HMSNRIDKIKLNHWLNIRKTSLDVLNNLLSKHLNHKINFENLENLDEQAIEKISEVLSIPKNKLLINDDVP | -0.219
43 | HMSNTVEDLIDDIGTVTKDSKDKIDAARKAYDGLTEDQKKLVPDSVLKTLTDAEAAYAKLTK | 0.567
44 | HMSNWYGTVVKIQPRPNAQAADTAVVKLLDGSEHRFPVWADHLTTIEVGSRLKKLSGGWDPVLMDPEETF | -0.669
45 | HMSNWYKNNETDQIWWKDTPDSVGEWLFSFDKKQVFNMFADYPHNLTPEQKKIFDEENPEWSDRP | -0.351
46 | HMSNYPYLLRTYEGKLAVFTDDLVQPDLVFDVYVRTLPELDQQQLSRGIRVKTYDELTSMIEDYI | -2.22
47 | HMSPAVEDYLEQIHNLIAQKGYARVVDIAGNLKISQASVTNMIQRMDADGLVVYERYRGVVLTETGRK | -1.28
48 | HMSPDLNEVEEKVFRALNGVESMHVNKLGIELNLPVSELFFTLLELEMKNVVKALPGGMYKL | -2.26
49 | HMSPFYILDEVEAALDDTNLGRLLEIYEELRENSQLLVITHQKRTMEVGDALYGVTMRGDGVSAVISQRLR | 0.306
50 | HMSPKYLELVRWINTQIQEKKLTAGQKMYSENELKEMFGVSRQTVRHAISVLEGEGMIRRVRGSGTYINDN | -2.42
